Consider two substances from patent US5763209.

Where only a bound is given, the exact number is not on record here.

Test in all cases: cell_activity
In data set [1] the test system is GAL4(1-147)-Egr-1(3-281) (Saccharomyces cerevisiae / Mus musculus). The conditions noted are these: GAL4-site-dependent activation; text says amino acids 1-281.
The subject of data set [2] is GAL4(1-147)-Egr-1(420-533) (Saccharomyces cerevisiae / Mus musculus). The note with it: GAL4-site-dependent activation.
Data set [3] relates to GAL4(1-147)-Egr-1(240-330) (Saccharomyces cerevisiae / Mus musculus). The note with it: GAL4-site-dependent.
Data set [4] has as its system GAL4(1-147)-Egr-1(281-314) (Saccharomyces cerevisiae / Mus musculus). The conditions noted are these: 1 µg effector plasmid.

As for “GAL4 reporter, five GAL4 sites with E1b minimal promoter”, the activity in data set [1] is 100 fold; in data set [2] it was 5 fold.
As for GAL4 5 tkCAT reporter plasmid, the results for the activity (fold repression) in data set [3] and in data set [4] were 10 and > 5, respectively.
